Measurements taken from publication PMC9054839, “Mechanism of integrin activation by talin and its cooperation with kindlin” (Nature Communications, 2022).
No end group written: not given here.

Experiments:
Details in all cases: both partners purified
[1] = biological target: T1, constitutively activated full-length talin mutant tlnM3 (M319A, T1767L, E1770K) (mouse, UniProt P26039 1-2541, M319A | T1767L | E1770K); assay: SPR; tlnM3 amine-coupled to CM5, paxiFL (0–500 nM) flowed over; 50 mM sodium phosphate pH 6.8, 150 mM NaCl, 25 °C; 1:1 model
T1 construct: talin (talin-1), mouse, full length 1-2541, in pET28T; also called active talin; talinFL TM; source: E. coli BL21 (DE3), purified (nickel column, Superose-6 gel filtration)

paxillin 1–160 = biological target: T2, paxillin 1–160 (human, UniProt P49023-3 1-160); assay: SPR; paxillin 1–160 amine-coupled to CM5, talin subdomains (0–12 μM) flowed over; 50 mM sodium phosphate pH 6.8, 150 mM NaCl, 25 °C; talin-R1–R4 fitted by a two-state model
T2 construct: paxillin-γ, human, N-terminal 1-160 containing LD1 and LD2, in pGST-1; also called paxillin-γ 1–160; paxillin N-terminal 1–160; source: E. coli BL21 (DE3), purified (GST column, gel filtration)

[2] = biological target: T1, constitutively activated full-length …; assay: SPR; GST-integrin beta3CT amine-coupled to CM5, talinH or tlnM3 (0–125 nM) flowed over; 50 mM sodium phosphate pH 6.8, 150 mM NaCl, 0.05% Tween 20, 0.03% BSA, 25 °C
[3] = biological target: T1, constitutively activated full-length …; assay: pull-down; GST-paxillin (full length or fragments) on glutathione-Sepharose 4B beads, talin or talin fragments as prey; 25 mM Tris-HCl pH 7.5, 150 mM NaCl, 0.5 mM TCEP, 0.01 or 0.1% NP40, 4 °C; western blot or Coomassie

T1 sequence (P26039 whole entry M319A/T1767L/E1770K): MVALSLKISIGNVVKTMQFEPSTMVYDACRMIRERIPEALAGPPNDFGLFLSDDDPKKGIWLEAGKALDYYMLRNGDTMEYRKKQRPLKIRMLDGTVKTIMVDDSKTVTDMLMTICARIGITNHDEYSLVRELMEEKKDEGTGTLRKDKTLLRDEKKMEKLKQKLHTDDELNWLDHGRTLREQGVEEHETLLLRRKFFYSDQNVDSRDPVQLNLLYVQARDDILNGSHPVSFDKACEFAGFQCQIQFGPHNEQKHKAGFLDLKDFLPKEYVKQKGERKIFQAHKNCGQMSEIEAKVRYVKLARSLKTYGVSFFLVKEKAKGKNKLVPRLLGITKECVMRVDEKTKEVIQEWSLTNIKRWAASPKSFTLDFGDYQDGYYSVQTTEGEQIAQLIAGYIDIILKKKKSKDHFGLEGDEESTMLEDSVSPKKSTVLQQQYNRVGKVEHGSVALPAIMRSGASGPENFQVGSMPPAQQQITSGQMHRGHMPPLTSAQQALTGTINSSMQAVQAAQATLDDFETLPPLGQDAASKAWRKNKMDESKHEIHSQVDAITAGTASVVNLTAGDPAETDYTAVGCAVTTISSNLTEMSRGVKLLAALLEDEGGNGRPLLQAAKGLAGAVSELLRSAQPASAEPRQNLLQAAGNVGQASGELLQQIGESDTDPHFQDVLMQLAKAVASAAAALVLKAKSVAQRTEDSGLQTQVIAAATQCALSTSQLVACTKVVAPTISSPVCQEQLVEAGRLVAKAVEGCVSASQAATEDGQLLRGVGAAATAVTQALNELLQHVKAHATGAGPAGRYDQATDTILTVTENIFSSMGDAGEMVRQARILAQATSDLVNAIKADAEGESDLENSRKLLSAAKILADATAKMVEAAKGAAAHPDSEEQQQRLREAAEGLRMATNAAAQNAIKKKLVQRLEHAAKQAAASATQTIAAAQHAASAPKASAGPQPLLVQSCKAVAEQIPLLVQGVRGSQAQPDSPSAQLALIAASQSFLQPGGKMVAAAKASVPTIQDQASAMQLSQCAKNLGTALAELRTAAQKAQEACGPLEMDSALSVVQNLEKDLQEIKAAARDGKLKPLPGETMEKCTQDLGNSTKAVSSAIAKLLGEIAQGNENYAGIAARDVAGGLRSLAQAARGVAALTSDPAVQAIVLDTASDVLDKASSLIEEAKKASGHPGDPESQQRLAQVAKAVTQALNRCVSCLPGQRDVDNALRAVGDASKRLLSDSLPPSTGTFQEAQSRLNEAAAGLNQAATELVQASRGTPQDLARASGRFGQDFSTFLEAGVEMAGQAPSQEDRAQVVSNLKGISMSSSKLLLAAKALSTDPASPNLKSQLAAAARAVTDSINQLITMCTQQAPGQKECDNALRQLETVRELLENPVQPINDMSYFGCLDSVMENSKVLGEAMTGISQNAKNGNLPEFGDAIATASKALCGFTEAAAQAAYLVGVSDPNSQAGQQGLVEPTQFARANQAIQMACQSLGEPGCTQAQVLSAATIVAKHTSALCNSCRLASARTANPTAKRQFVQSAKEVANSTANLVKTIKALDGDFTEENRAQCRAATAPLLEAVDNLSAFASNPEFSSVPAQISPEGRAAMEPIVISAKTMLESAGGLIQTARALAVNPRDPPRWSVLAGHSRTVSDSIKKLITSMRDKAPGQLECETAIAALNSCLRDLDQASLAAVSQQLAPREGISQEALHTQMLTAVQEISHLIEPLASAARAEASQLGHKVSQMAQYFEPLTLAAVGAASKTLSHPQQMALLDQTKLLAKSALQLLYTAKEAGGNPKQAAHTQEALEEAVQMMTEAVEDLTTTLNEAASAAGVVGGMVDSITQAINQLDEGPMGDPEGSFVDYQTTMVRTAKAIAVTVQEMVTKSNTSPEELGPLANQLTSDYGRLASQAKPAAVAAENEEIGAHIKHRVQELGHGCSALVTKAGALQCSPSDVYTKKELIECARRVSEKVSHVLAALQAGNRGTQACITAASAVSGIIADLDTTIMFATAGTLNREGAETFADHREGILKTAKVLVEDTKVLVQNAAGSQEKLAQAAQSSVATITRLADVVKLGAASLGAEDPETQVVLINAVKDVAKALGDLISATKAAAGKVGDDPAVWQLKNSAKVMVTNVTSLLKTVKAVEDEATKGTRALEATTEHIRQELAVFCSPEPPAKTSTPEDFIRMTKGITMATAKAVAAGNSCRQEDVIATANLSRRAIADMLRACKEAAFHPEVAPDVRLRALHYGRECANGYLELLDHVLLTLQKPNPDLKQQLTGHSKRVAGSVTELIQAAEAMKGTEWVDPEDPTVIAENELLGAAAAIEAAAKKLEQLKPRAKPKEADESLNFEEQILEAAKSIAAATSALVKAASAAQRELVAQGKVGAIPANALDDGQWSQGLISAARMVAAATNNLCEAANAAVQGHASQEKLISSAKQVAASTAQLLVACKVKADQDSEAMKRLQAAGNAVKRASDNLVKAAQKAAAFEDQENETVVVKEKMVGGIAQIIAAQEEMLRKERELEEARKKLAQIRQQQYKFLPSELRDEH
T2 sequence (P49023 1-160): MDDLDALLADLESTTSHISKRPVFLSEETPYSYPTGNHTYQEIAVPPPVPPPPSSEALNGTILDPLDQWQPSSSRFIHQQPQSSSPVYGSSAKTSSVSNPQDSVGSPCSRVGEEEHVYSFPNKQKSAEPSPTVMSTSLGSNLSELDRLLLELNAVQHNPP

B1: full-length paxillin (natural protein)
chain: not shown
notes: also called paxiFL; paxillin-γ; source: E. coli BL21 (DE3), purified (GST column, gel filtration)
For B1, the Kd [1] was roughly 33.1 nM and the “stoichiometry N” value [1] was 1.

B2: talin-F3 (domain or fragment)
chain: GVSFFLVKEKMKGKNKLVPRLLGITKECVMRVDEKTKEVIQEWSLTNIKRWAASPKSFTLDFGDYQDGYYSVQTTEGEQIAQLIAGYIDIILKKKKS
With B2 the Kd (paxillin 1–160) was roughly 3.51 µM.

B3: GST-integrin beta3 cytoplasmic tail (domain or fragment, UniProt P05106 742-788, looked up)
chain: {GST}-KLLITIHDRKEFAKFEEERARAKWDTANNPLYKEATSTFTNITYRGT
notes: integrin β3 cytoplasmic tail; also called integrin-β3 CT; GST-integrin beta3CT; source: E. coli BL21 (DE3), purified
With B3 the Kd [2] was roughly 14.5 nM.

B4: GST-paxillin 1–160 (domain or fragment)
chain: not shown
notes: paxillin-γ, human, N-terminal 1-160 containing LD1 and LD2, in pGST-1; also called paxi1–160; source: E. coli BL21 (DE3), purified (GST column, gel filtration)
B4: binds [3].

B5: talin-R8 (domain or fragment, mouse, UniProt P26039 1461-1580, looked up)
chain: LVEPTQFARANQAIQMACQSLGEPGCTQAQVLSAATIVAKHTSALCNSCRLASARTANPTAKRQFVQSAKEVANSTANLVKTIKALDGDFTEENRAQCRAATAPLLEAVDNLSAFASNPE
notes: talin (talin-1), mouse, rod subdomain R8; source: E. coli BL21 (DE3), purified
B5 gave a Kd (paxillin 1–160) of roughly 5.37 µM.

B6: talin-R2 (domain or fragment, mouse, UniProt P26039 655-782, looked up)
chain: IGESDTDPHFQDVLMQLAKAVASAAAALVLKAKSVAQRTEDSGLQTQVIAAATQCALSTSQLVACTKVVAPTISSPVCQEQLVEAGRLVAKAVEGCVSASQAATEDGQLLRGVGAAATAVTQALNELL
notes: talin (talin-1), mouse, rod subdomain R2; source: E. coli BL21 (DE3), purified
For B6, the Kd (paxillin 1–160) was roughly 2.21 µM.
